{"source": "patent US9410182B2", "about": "“Phosphatase coupled glycosyltransferase assay” (Bio-Techne Corporation, priority 2010, dated 2016)", "assay": "Transferase activity of Fut7 on 3′-sialyl-N-acetyllactosamine assayed with CD39L3", "type": "biochemical", "conditions": "0.1 μg CD39L3, 40 μM GDP-fucose, 40 μM 3′-sialyl-N-acetyllactosamine, 37° C., 30 minutes", "excerpt": "The GDP-Fucose, UDP-Glucose, CMP-NeuAc, CMP, UDP and GDP used in the following experiments were obtained from Sigma-Aldrich (St Louis, Mo.). The recombinant human Fut7, ST6Gal1, CD73, CD39L3, non-specific alkaline phosphatase TNAP, recombinant Clostridium Difficile toxin B (TcdB) containing the glycosyltransferase domain and Malachite Green Phosphate Detection Kit were obtained from R&D Systems (Minneapolis, Minn.). The 3′-Sialyl-N-acetyllactosamine was obtained from V-LABS, Inc (Convington, La.). Unless otherwise specified, each glycosyltransferase reaction was performed in 50 μL of a buffer of 25 mM Tris, 150 mM NaCl, 5 mM MgCl2 and 5 mM MnCl2, at pH 7.5 in a 96-well plate at room temperature for 20 minutes. To determine kinetic parameters of each glycosyltransferase, multiple reactions with varied amounts of either glycosyltransferase or substrates were preceded simultaneously in the presence of fixed amounts of all other components, including a phosphatase. A well containing all components except glycosyltransferase served as a blank control for each example. […] The plate was then read at 620 nm with a multi-well plate reader.\nThe only known function of fucosyltransferase 7 (Fut7) is the biosynthesis of sialy Lewis X epitope in leukocytes and high endothelial venule cells. […] The reaction was then stopped and detected by malachite reagents. […]"}
{"molecule": "Fut7: recombinant human fucosyltransferase 7 from R&D Systems (protein, UniProt Q11130 1-342, looked up) Alpha-(1,3)-fucosyltransferase …: MNNAGHGPTRRLRGLGVLAGVALLAALWLLWLLGSAPRGTPAPQPTITILVWHWPFTDQPPELPSDTCTRYGIARCHLSANRSLLASADAVVFHHRELQTRRSHLPLAQRPRGQPWVWASMESPSHTHGLSHLRGIFNWVLSYRRDSDIFVPYGRLEPHWGPSPPLPAKSRVAAWVVSNFQERQLRARLYRQLAPHLRVDVFGRANGRPLCASCLVPTVAQYRFYLSFENSQHRDYITEKFWRNALVAGTVPVVLGPPRATYEAFVPADAFVHVDDFGSARELAAFLTGMNESRYQRFFAWRDRLRVRLFTDWRERFCAICDRYPHLPRSQVYEDLEGWFQA", "values": [{"measurement": "specific activity of the enzyme", "value": 12.6, "unit": "pmol/min/µg"}]}
